Where no end group is shown, it is not given here.
How the values were obtained:
[1] = target: the molecule itself; assay: native gel or EMSA; purified BiP proteins (30-50 µM) on a Tris-glycine native gel (4.5% stacking, 7.5% separation), Coomassie stain or immunoblot; with or without ATP (3-5 mM)
[2] = target: the molecule itself; assay: SEC; purified BiP proteins at 50 µM in HKM buffer (50 mM HEPES-KOH pH 7.4, 150 mM KCl, 10 mM MgCl2), 16 hr at room temperature, no added nucleotide; SEC-3 HPLC column, A230 nm
[3] = target: T1, wildtype hamster BiP, N-terminally hexahistidine-tagged (hamster, UniProt G3I8R9 19-654); assay: SEC; wildtype BiP (50 µM) incubated 16 hr with 1 mM peptide in HKM, SEC-3 column; competition of peptides with oligomerisation; settings: both partners purified
T1 construct: BiP (GRP78), hamster; Construct details are in Supplementary file 1; also called wt BiP; wildtype BiP; source: E. coli M15 (pQE10), purified (Ni-NTA); not shown: His6, N-terminal, kept
T1 sequence (G3I8R9 19-654): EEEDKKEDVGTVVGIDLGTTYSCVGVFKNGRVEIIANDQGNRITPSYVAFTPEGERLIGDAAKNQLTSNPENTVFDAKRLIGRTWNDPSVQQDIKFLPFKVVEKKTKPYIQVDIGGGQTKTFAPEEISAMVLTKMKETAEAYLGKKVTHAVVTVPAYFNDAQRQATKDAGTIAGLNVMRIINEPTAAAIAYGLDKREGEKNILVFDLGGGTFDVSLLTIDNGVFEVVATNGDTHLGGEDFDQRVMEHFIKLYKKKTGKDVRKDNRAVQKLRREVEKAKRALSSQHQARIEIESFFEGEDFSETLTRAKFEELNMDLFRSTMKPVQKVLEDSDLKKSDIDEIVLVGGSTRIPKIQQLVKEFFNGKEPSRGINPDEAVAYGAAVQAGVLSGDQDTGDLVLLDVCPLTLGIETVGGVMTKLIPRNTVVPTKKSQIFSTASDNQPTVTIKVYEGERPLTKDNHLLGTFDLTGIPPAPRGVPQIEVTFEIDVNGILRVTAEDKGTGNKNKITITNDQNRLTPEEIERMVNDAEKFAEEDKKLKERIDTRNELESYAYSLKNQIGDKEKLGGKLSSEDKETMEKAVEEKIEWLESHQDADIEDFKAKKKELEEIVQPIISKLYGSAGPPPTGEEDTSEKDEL

[4] = target: T1, wildtype hamster BiP, N-terminally …; assay: SEC; BiP protein (50 µM) with 1 µM lucifer yellow-labeled tracer (peptide or BiP V461F), 16 hr in HKM; A230 nm and LY fluorescence recorded; with or without SubA (36 ng/µl) before the run; settings: both partners purified

B1: BiP^T229A, ATPase activity-deficient mutant of hamster BiP (natural protein)
chain: not shown
notes: BiP (GRP78), hamster; Construct details are in Supplementary file 1; source: E. coli M15 (pQE10), purified (Ni-NTA); not shown: His6, N-terminal, kept
Question: Does B1 bind [1]?
Answer: binds

B2: BiP^T37G, hamster BiP mutant locked in the domain-uncoupled state (natural protein)
chain: not shown
notes: BiP (GRP78), hamster; Construct details are in Supplementary file 1; source: E. coli, purified; not shown: His6, N-terminal, kept
Question: Does B2 bind [1]?
Answer: binds

B3: BiP^lidless, hamster BiP lacking its C-terminal lid (∆554–654) (domain or fragment)
chain: not shown
notes: Construct details are in Supplementary file 1; also called lidless BiP; source: E. coli, purified; not shown: His6, N-terminal, kept
Question: Does B3 bind [2]?
Answer: binds

B4: BiP^G226D, hamster BiP mutant locked in the domain-uncoupled state (natural protein)
chain: not shown
notes: as for B2
Question: Does B4 bind [1]?
Answer: binds

B5: peptide derived from the interdomain linker of BiP (DTGDLVLLD) (peptide)
peptide: DTGDLVLLD
notes: interdomain linker of BiP (GRP78), hamster; also called Linker Pep; linker peptide
Question: Does B5 bind [3]?
Answer: binds

B6: lucifer yellow-labeled BiP-binding peptide (HTFPAVL-LY) (peptide)
peptide: HTFPAVL-{lucifer yellow}
notes: BiP substrate peptide (Marcinowski et al., 2011), fluorescently labelled; also called Pep-LY
Question: With B6 as the binder, how does the “ratio of fluorescent to quantity signal R^(FLU/A230 nm), peak II (peak I set to 1.00)” value [4] read?
Answer: 0.48

Question: And the “ratio of fluorescent to quantity signal R^(FLU/A230 nm), peak III (peak I set to 1.00)” value [4]?
Answer: 0.26

B7: BiP-binding peptide HTFPAVL (peptide)
peptide: HTFPAVL
notes: well-characterized BiP substrate peptide (Marcinowski et al., 2011); also called BiP substrate peptide
Question: Does B7 bind [3]?
Answer: binds

Reference: publication PMC4608358, “Physiological modulation of BiP activity by trans-protomer engagement of the interdomain linker” (eLife, 2015)
